# Assay results reported in article PMC10359615.
# Molecular target: APE1Dead (catalytically dead APE1) D210N;E96Q (human) (UniProt P27695)
# Experiment: EMSA
# Details: EMSA: 50 mM Tris pH 8, 1 mM EDTA, 0.2 mg/ml BSA, 1 mM DTT, 5% sucrose, room temperature, 5 nM DNA, FRET: 20 mM HEPES pH 7.5, 150 mM KCl, 5 mM MgCl2, 5 mM …
# Chain of APE1Dead (catalytically dead APE1) D210N;E96Q (human) (P27695 whole entry E96Q/D210N): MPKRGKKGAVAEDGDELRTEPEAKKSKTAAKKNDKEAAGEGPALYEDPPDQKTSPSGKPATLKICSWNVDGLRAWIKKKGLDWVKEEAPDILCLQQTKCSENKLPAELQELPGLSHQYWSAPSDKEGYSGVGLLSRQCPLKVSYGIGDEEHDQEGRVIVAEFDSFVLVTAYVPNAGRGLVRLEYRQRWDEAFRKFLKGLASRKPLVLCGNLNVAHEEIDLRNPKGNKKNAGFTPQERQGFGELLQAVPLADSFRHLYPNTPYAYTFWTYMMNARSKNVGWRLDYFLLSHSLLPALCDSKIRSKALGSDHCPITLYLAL
substance,measurement,setting,value
"CTCAACACTTAACTA / TGGATGATGACTCTTCTGCGTTCGCTGATGCGCCGACGGTAGTTAAGTGTTGAG [Rec-PTJ, abasic site 7 nt from junction (FAM)]",Kd,THF abasic analog 7 nt from the 3' ds-ss junction,0.7 nM
"CTCAACACTTAACTACCGTCG / TGGATGATGACTCTTCTGCGTTCGCTGATGCGCCGACGGTAGTTAAGTGTTGAG [PTJ, abasic site at junction (FAM)]",Kd,THF abasic analog directly next to the 3' ds-ss junction,1.2 nM
GCTGATGCGCNCGACGGATCC [abasic ssDNA 21-mer],Kd,"1 mM EDTA, Kd,app, N11 = tetrahydrofuran abasic analog (THF)",22 nM
abasic dsDNA,Kd,"1 mM EDTA, Kd,app, THF abasic analog",0.4 nM
